This assay addresses latrunculin B bound actin (A. castellani actin monomer) (A. castellani). The assay can be described thus: fluorescence polarisation.

pKd: −log10 of the molar value.

Among the data in article PMC4324353 are Kd values, retold here.

For orientation: pKd means −log10 of the Kd, conventionally taken in molar units. As for “Spir second WH2 domain (SB) (domain or fragment)”, the pKd was 7.05.
